Experimental data reported in patent US20210347908A1 (ELPISCIENCE SUZHOU BIOPHARMA, published 2021).
Where two headings read alike, the source gives them in different places.

Experiments:
[1] = biological target: T1, Fc tagged human SIRPα v1 ECD recombinant protein (human, UniProt P78324 31-370); assay: ELISA
T1 construct: range 1-370; cloned range M1-R370 includes the signal peptide; also called hSIRPα V1; not shown: human IgG Fc region (hFc) of the pCPC vector

[2] = biological target: T2, Fc tagged human SIRPα v2 ECD recombinant protein (human); assay: ELISA
T2 construct: range 1-369; cloned range M1-R369 includes the signal peptide; also called hSIRPα V2

[3] = biological target: T3, Fc tagged human SIRPβ ECD recombinant protein (human, UniProt O00241 30-371); assay: ELISA
T3 construct: range 1-371; cloned range includes the signal peptide; also called hSIRPβ; not shown: human IgG Fc region (hFc) of the pCPC vector
T3 sequence (O00241 30-371 limits assumed, form in doubt): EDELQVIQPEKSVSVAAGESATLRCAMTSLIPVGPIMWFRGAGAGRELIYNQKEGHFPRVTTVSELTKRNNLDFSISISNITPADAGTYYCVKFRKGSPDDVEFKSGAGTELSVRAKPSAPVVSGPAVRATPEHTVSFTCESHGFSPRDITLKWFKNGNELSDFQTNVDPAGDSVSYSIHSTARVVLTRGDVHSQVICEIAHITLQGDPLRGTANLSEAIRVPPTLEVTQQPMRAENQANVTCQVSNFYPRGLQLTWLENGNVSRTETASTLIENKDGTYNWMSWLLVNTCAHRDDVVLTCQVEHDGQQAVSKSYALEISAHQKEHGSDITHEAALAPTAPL

[4] = biological target: T4, Fc tagged human SIRPγ ECD recombinant protein (human, UniProt Q9P1W8 29-360); assay: ELISA
T4 construct: range 1-360; cloned range includes the signal peptide; also called hSIRPγ; not shown: human IgG Fc region (hFc) of the pCPC vector
T4 sequence (Q9P1W8 29-360 limits assumed, form in doubt): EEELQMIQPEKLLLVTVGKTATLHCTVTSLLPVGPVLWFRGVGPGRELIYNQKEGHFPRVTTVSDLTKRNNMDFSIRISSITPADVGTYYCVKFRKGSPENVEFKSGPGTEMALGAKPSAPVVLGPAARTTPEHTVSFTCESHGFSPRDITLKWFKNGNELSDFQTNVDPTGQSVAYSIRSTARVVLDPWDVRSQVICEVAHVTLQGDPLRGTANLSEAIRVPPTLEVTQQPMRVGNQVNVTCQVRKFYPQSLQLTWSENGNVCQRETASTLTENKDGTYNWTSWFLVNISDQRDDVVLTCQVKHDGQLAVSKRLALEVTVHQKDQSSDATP

[5] = biological target: T5, 6×His tagged human SIRPα v8 ECD recombinant protein (human); assay: ELISA
T5 construct: extracellular domain; bought; also called hSIRPα V8

[6] = biological target: T6, 6×His tagged human SIRPα v1 ECD recombinant protein (human, UniProt P78324 31-373); assay: SPR (Biacore)
T6 construct: extracellular domain; bought; also called hSIRPα V1 (SPR antigen)
T6 sequence (P78324 other isoform, or with tags, fused parts or gaps): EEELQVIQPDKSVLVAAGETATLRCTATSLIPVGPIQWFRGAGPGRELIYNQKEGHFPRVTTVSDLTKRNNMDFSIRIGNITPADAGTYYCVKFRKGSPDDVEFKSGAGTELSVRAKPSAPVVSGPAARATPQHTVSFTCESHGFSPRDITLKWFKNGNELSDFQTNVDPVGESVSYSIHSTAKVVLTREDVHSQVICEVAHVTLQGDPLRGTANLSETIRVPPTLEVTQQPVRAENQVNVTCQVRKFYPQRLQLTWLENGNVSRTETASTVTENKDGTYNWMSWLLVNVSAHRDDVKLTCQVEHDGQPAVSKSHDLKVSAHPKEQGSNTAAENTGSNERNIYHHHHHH

[7] = biological target: T7, full length human SIRPα v1 stably expressed on CHOK1 cells (human, UniProt P78324 31-504); assay: FACS on CHOK1 cells
T7 construct: whole, on cells; also called CHOK1-human SIRPα v1-1B4 cells; CHOK1-human SIRPα v1
Protocol: (§1) Species cross reactivity of the purified hybridoma antibodies against human, cyno and mouse SIRPα was determined by FACS assay using CHOK1-human SIRPα v1-1B4 cells, CHOK1-cyno SIRPα-2A2 cells, and CHOK1-C57BL/6 mouse SIRPα-2.22 cells, which stably expressing SIRPα protein. Briefly the antibodies were incubated with 2×10⁵ target cells at 4° C. for 1 hour. After washing, fluorescence labeled anti-mouse or anti-human IgG 2nd antibody (Life Technologies) was added and incubated at 4° C. for 1 hour. Geometric median fluorescence intensity was detected and EC₅₀ was calculated. In particular, it is noted, in contrast to the other antibodies tested in the same experiment, 060 cannot bind with cyno SIRPα and 035 has cross reactivity against C57BL/6 mouse SIRPα.

[8] = biological target: T8, full length cyno SIRPα stably expressed on CHOK1 cells (cynomolgus monkey, UniProt A0A2K5VYQ9 31-507); assay: FACS on CHOK1 cells
T8 construct: whole, on cells; also called CHOK1-cyno SIRPα-2A2 cells; CHOK1-cyno SIRPα
T8 sequence: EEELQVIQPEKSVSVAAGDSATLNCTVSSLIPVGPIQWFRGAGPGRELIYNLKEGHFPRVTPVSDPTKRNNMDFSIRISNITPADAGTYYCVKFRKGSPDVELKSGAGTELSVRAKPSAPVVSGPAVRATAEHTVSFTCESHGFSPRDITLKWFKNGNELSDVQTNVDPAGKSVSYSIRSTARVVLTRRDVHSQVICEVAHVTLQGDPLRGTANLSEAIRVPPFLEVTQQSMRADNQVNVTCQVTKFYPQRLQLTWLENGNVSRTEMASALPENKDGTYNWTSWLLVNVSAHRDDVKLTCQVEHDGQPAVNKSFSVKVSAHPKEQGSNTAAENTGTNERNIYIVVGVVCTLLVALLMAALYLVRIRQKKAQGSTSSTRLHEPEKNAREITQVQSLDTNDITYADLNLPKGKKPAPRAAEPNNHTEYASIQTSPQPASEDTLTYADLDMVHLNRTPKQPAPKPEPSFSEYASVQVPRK
Protocol: as §1

[9] = biological target: T9, full length C57BL/6 mouse SIRPα stably expressed on CHOK1 cells (mouse (C57BL/6), UniProt P97797 32-513); assay: FACS on CHOK1 cells
T9 construct: whole, on cells; also called CHOK1-C57BL/6 mouse SIRPα-2.22 cells
T9 sequence (looked up): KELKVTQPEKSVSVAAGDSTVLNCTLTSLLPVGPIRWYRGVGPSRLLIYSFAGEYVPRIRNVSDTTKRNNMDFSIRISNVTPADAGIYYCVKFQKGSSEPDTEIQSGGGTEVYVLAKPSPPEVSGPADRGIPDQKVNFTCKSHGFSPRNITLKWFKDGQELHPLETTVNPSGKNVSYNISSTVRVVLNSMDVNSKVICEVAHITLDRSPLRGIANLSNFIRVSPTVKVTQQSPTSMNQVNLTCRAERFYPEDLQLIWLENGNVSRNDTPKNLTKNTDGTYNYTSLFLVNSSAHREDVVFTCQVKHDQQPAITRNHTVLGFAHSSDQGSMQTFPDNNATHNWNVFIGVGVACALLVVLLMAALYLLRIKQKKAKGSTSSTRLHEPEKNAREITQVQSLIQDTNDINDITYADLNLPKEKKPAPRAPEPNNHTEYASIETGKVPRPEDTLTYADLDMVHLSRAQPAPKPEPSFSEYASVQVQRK
Protocol: as §1

[10] = biological target: T6, 6×His tagged human SIRPα v1 ECD …; assay: SPR (Biacore), antibody captured
Protocol: Anti-SIRPα chimeric antibodies were characterized for binding affinity against human SIRPα v1, human SIRPα v2 and C57BL/6 mouse SIRPα using Biacore (GE). Briefly the antibodies to be tested were captured to CM5 chip (GE) using Human Antibody Capture Kit (GE). The antigens of 6×His tagged human SIRPα v1, human SIRPα v2 and C57BL/6 mouse SIRPα ECD recombinant proteins were serially diluted for multiple doses and injected at 30 μl/min for 180 s. Buffer flow was maintained for dissociation of 400 s. 3 M MgCl₂ was used for chip regeneration. The association and dissociation curves were fit with 1:1 binding model, and the Ka/Kd/KD values for each antibody were calculated.

[11] = biological target: T10, biotin labeled soluble human SIRPα v1 ECD recombinant protein (human, UniProt P78324 31-373, biotin labeled); assay: competitive ELISA, hSIRPα/CD47 blocking
T10 construct: extracellular domain
T10 sequence (P78324 31-373): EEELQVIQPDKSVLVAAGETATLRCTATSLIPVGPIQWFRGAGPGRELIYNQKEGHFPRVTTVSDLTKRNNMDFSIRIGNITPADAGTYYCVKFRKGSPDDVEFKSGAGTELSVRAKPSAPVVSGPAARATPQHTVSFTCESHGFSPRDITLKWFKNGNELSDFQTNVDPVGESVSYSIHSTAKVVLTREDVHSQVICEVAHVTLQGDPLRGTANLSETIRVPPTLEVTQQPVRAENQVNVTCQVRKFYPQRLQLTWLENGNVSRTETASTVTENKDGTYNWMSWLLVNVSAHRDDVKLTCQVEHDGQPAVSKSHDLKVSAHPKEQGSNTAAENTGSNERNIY

[12] = biological target: T1, Fc tagged human SIRPα v1 ECD …; assay: ELISA; remark: listed apart in the source
Protocol: (§2) Binding specificity of the purified hybridoma antibodies against SIRP family members was detected by ELISA assay using recombinant proteins of Fc tagged human SIRPα v1 ECD, human SIRPα v2 ECD, human SIRPβ ECD and human SIRPγ ECD. Briefly the antibodies were incubated with ELISA microplate coated antigens at 37° C. for 1 hour. After washing, horseradish peroxidase (HRP) labeled anti-mouse or anti-human IgG 2nd Ab (Sigma) was added and incubated at 37° C. for 1 hour. Then, 100 μl/well of TMB solution (Biotechnology) was added. After incubation for 15 minutes at room temperature, the reaction was stopped by the addition of 50 μl of 1N HCl. OD 450 nm was read and EC₅₀ was calculated. Other than 060 and HEFLB, all of the antibodies as tested can bind with both human SIRPα v1 and SIRPα v2. 060 and HEFLB can bind with human SIRPα v1 but not v2. Other than 055, all of the antibodies as tested can bind with human SIRPβ. In comparison with other known anti-SIRPα antibodies, only 022, 035 and 050 can bind with human SIRPγ weakly.

[13] = biological target: T2, Fc tagged human SIRPα v2 ECD …; assay: ELISA; remark: listed apart in the source
Protocol: as §2

[14] = biological target: T10, biotin labeled soluble human SIRPα v1 …; assay: competitive ELISA; competitor 001
Protocol: (§3) Competitive ELISA assay was used for epitope binning of 9 functional antibodies. Briefly excessive competitor antibody and biotin labeled soluble human SIRPα v1 ECD recombinant protein were co-incubated with ELISA microplate coated antibody. After washing, HRP-SA was added and incubated at 37° C. for 1 hour. Then, […] of TMB solution (Biotechnology) was added. After incubation for 15 minutes at room temperature, the reaction was stopped by the addition of […] of 1N HCl. OD 450 nm was read. Competition ratio was calculated. The antibodies that can compete each other for binding to SIRPα have the similar binding epitope.

[15] = biological target: T10, biotin labeled soluble human SIRPα v1 …; assay: competitive ELISA; competitor 002
Protocol: as §3

[16] = biological target: T10, biotin labeled soluble human SIRPα v1 …; assay: competitive ELISA; competitor 022
Protocol: as §3

[17] = biological target: T10, biotin labeled soluble human SIRPα v1 …; assay: competitive ELISA; competitor 032
Protocol: as §3

[18] = biological target: T10, biotin labeled soluble human SIRPα v1 …; assay: competitive ELISA; competitor 035
Protocol: as §3

[19] = biological target: T10, biotin labeled soluble human SIRPα v1 …; assay: competitive ELISA; competitor 050
Protocol: as §3

[20] = biological target: T10, biotin labeled soluble human SIRPα v1 …; assay: competitive ELISA; competitor 055
Protocol: as §3

[21] = biological target: T10, biotin labeled soluble human SIRPα v1 …; assay: competitive ELISA; competitor 060
Protocol: as §3

[22] = biological target: T10, biotin labeled soluble human SIRPα v1 …; assay: competitive ELISA; competitor 074
Protocol: as §3

[23] = biological target: T10, biotin labeled soluble human SIRPα v1 …; assay: competitive ELISA; competitor HEFLB
Protocol: as §3

[24] = biological target: T10, biotin labeled soluble human SIRPα v1 …; assay: competitive ELISA; competitor KWAR23
Protocol: as §3

[25] = biological target: T10, biotin labeled soluble human SIRPα v1 …; assay: competitive ELISA; competitor 29-AM4-5
Protocol: as §3

T1 sequence (P78324 31-370 limits assumed): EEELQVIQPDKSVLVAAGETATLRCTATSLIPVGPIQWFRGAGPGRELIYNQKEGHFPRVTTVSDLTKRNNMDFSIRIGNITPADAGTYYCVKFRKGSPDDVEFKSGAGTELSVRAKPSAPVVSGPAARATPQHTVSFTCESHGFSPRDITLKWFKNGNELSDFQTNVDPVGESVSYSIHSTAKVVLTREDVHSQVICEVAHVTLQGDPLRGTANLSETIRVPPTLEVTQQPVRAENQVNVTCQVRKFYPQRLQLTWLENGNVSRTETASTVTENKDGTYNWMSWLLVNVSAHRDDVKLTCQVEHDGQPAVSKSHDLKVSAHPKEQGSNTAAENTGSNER

B1: humanized antibody hu035.02 (antibody, V domains shown)
VH: QIQLVQSGSELKKPGASVKVSCRARGYTLTDYAMNWVRQAPGQGLEWMGFINTYTGEPTYAQGFKGRFVFSLDTSVSTAYLQIGSLKAEDTAVYYCARTRGYYDFDGGAFDYWGQGTLVTVSS
VL: DIQMTQSPSSLSASVGDRVTITCRASQNVGTHLAWYQQKPGKAPKSLIYSASYRYIGVPSRFSGSGSGTDFTLTISSLQPEDFATYYCQQYNTYPLTFGQGTKLEIK
EC50 [1]: 0.16 nM | EC50 [2]: 0.16 nM | EC50 [3]: 0.2 nM | EC50 [4]: 6.24 nM | EC50 [5]: 0.23 nM | Kd [6]: 1.64 nM | EC50 [7]: 0.97 nM | EC50 [8]: 0.29 nM | MFI at 2 ug/ml [9]: 549 MFI | Kd [10]: 1.64 nM | koff [10]: 0.00017 s⁻¹ | kon [10]: 104000 M⁻¹ s⁻¹ | IC50 [11]: 1.74 nM

B2: Antibody 055 (hybridoma antibody) (antibody, V domains shown)
VH: EVKLVESEGGLVQPGDSMKLSCTASGFTFSDYFMTWIRQVPEKGLEWIANVNYDGRSTYYLDSLKSRFIISRDNANNILYLQMSSLKSEDTATYYCAREGSQTPLYAVDYWGQGTSVTVSS
VL: DIVMTQSQKFMSTTVGDRVNITCKASQNVGTAVAWYQQKPGQSPKLLIYLASNRYTGVPDRFTGSGSGTDFTLTVSDMRSEDLADYFCQQYSIYPFTFGSGTKLEIK
notes: mouse hybridoma antibody
EC50 [12]: 0.04 nM | EC50 [13]: 0.04 nM | EC50 [7]: 1.2 nM | MFI at 10 nM [8]: 4670 MFI | binding result [9]: no binding (tested: 100 nM) | % Competition [14]: -3% | % Competition [15]: -8% | % Competition [16]: 2% | % Competition [17]: -1% | % Competition [18]: 8% | % Competition [19]: 7% | % Competition [20]: 91% | % Competition [21]: 8% | % Competition [22]: 3% | % Competition [23]: -10% | % Competition [24]: 45% | % Competition [25]: 14%
